The target in assay [1] is human FcRn complex (FCGRT and beta-2 microglobulin), recombinant, purified (human) (UniProt P55899). As to the kind of experiment: SPR, anti-human Fab capture, pH 6, steady state.
For assay [2] the target is unchanged. As to the kind of experiment: SPR, anti-human Fab capture, pH 7.4, steady state. Background: SPR reads the build-up and loss of mass on a sensor chip optically.
The target in assay [3] is human FcRn (FCGRT and beta-2 microglobulin) expressed on MDCK II cells (human) (UniProt P55899). As to the kind of experiment: cell-based or functional assay.
Assay [4] has as its target human FcRn complex (FCGRT and beta-2 microglobulin), recombinant, purified (human) (UniProt P55899). As to the kind of experiment: SPR, protein L capture, pH 6, kinetic.
For assay [5] the target is unchanged. As to the kind of experiment: SPR, protein L capture, pH 7.4, steady state.

human FcRn complex (FCGRT and beta-2 microglobulin), recombinant, purified (human), sequence (P55899 24-297 limits assumed, chain 1 of 2): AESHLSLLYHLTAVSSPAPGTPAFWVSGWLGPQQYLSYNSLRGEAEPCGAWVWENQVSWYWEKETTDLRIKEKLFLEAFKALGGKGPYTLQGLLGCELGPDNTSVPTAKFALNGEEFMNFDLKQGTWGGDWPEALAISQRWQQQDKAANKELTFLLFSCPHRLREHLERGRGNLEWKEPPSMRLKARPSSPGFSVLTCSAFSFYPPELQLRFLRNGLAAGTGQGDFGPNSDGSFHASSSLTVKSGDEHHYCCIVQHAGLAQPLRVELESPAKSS
human FcRn complex (FCGRT and beta-2 microglobulin), recombinant, purified (human), sequence (P61769 21-119 limits assumed, chain 2 of 2, further chain): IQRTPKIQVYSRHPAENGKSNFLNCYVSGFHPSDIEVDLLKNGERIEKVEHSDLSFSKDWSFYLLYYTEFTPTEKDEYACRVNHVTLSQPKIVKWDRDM
human FcRn (FCGRT and beta-2 microglobulin) expressed on MDCK II cells (human), sequence (P55899 24-365, chain 1 of 2): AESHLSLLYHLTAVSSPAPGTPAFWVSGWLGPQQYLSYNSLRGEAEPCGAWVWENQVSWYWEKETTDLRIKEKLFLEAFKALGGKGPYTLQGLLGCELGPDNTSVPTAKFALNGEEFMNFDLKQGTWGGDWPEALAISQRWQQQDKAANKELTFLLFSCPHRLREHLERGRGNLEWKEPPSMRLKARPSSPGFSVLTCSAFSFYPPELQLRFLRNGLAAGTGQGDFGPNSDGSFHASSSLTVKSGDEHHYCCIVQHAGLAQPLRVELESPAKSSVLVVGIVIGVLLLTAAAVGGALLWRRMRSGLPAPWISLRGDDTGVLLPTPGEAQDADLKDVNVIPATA
human FcRn (FCGRT and beta-2 microglobulin) expressed on MDCK II cells (human), sequence (P61769 21-119, chain 2 of 2, further chain): as the sequence (P61769 21-119 limits assumed, chain 2 of 2, further chain) above

Turning to “anti-Abeta hIgG1 antibody, Fc modification D1 (M252Y/N434Y)”, the Kd (commonly the free concentration of one partner at which half of the binding sites on the other are occupied at equilibrium, for simple one-to-one binding) was 14 nM in assay [1] and 1150 nM in assay [2].
On the same counts, the results for “anti-Abeta hIgG1 antibody, Fc modification Q1 (M252Y/T307Q/Q311I/N434Y)” are 12.7 nM and 206 nM.
Taken in the same sequence, the figures for “anti-Abeta hIgG1 antibody, Fc modification Q2 (M252Y/T307Q/M428L/N434Y)” were 10.2 nM and 482 nM.
On to “anti-Abeta hIgG1 antibody, Fc modification Q3 (M252Y/T307Q/N434Y/Y436I)”, for which the Kd in assay [2] worked out at 206 nM.
For the substance “anti-Abeta hIgG1 antibody, Fc modification Q4 (M252Y/Q311I/M428L/N434Y)”, the dissociation constant Kd in assay [1] came out at 12.8 nM; in assay [2], 667 nM.
Taken in the same sequence, the figures for “anti-Abeta hIgG1 antibody, Fc modification Q5 (M252Y/Q311I/N434Y/Y436I)” were 10.8 nM and 265 nM.
On the same counts, the results for “anti-Abeta hIgG1 antibody, Fc modification Q6 (M252Y/M428L/N434Y/Y436I)” are 10.2 nM and 367 nM.
Taken in the same sequence, the figures for “anti-Abeta hIgG1 antibody, Fc modification Q7 (M252Y/Q311A/N434Y/Y436I)” were 8.2 nM and 292 nM.
Consider “anti-Abeta hIgG1 antibody, Fc modification Q95 (M252Y/T307Q/Q311A/N434Y)”, for which the dissociation constant (Kd) in assay [1] stood at 8.2 nM; in assay [2] it was 340 nM.
On the same counts, the results for “anti-Abeta hIgG1 antibody, Fc modification T3 (M252Y/Q311I/N434Y)” are 11.6 nM and 554 nM.
For “anti-Abeta hIgG1 antibody, Fc modification T94 (M252Y/N286E/N434Y)”, the figures for the dissociation constant (Kd) in assay [1] and in assay [2] were 10.1 nM and 521 nM, respectively.
On the same counts, the results for “anti-Abeta hIgG4 antibody, Fc modification Q1 (M252Y/T307Q/Q311I/N434Y)” are 6.3 nM and 165 nM.
For “anti-Abeta hIgG4 antibody, Fc modification Q2 (M252Y/T307Q/M428L/N434Y)”, in assay [2], the dissociation constant (Kd) came to 339 nM.
As for “anti-Abeta hIgG4 antibody, Fc modification Q3 (M252Y/T307Q/N434Y/Y436I)”, the dissociation constant (Kd) in assay [1] turned out to be 5.9 nM; in assay [2], 158 nM.
Consider “anti-Abeta hIgG4 antibody, Fc modification Q5 (M252Y/Q311I/N434Y/Y436I)”, for which the dissociation constant (Kd) in assay [2] came out at 151 nM.
“anti-BACE1 hIgG1 antibody, Fc modification D1 (M252Y/N434Y)”: in assay [3], the Transcytosis Normalized to WT (normalized to WT) stood at 79. The dissociation constant (Kd) in assay [4] is 28.7 nM; in assay [5], 963 nM; in assay [1], 13 nM; in assay [2] it was 1010 nM. Besides, in assay [4], the koff (as a rule, the rate constant with which the complex falls apart) was 0.0264 s⁻¹. For the same substance, the kon (commonly the second-order rate constant of association) in assay [4] came to 919000 M⁻¹ s⁻¹.
For “anti-BACE1 hIgG1 antibody, Fc modification Q1 (M252Y/T307Q/Q311I/N434Y)”, the Transcytosis Normalized to WT (normalized to WT) in assay [3] was determined as 132. Moreover, the Kd in assay [4] amounted to 4.69 nM; in assay [5], 197 nM; in assay [1], 6.6 nM; in assay [2], 157 nM. In assay [4], the off-rate constant (koff) was 0.00349 s⁻¹. Besides, the on-rate (kon) in assay [4] was 743000 M⁻¹ s⁻¹.
For “anti-BACE1 hIgG1 antibody, Fc modification Q2 (M252Y/T307Q/M428L/N434Y)”, in assay [3], the Transcytosis Normalized to WT (normalized to WT) came to 155. Further, the Kd in assay [4] came out at 11.1 nM; in assay [5] it was 663 nM; in assay [1], 8.7 nM; in assay [2], 211 nM. The koff in assay [4] was 0.00648 s⁻¹. The association rate constant (kon) in assay [4] worked out at 582000 M⁻¹ s⁻¹.
“anti-BACE1 hIgG1 antibody, Fc modification Q3 (M252Y/T307Q/N434Y/Y436I)” gave a Transcytosis Normalized to WT (normalized to WT) in assay [3] of 137. In addition, the values for the dissociation constant Kd in assay [5], in assay [1] and in assay [2] were 202 nM, 6.5 nM and 170 nM, respectively.
Substance “anti-BACE1 hIgG1 antibody, Fc modification Q5 (M252Y/Q311I/N434Y/Y436I)” returned a Transcytosis Normalized to WT (normalized to WT) in assay [3] of 133. The Kd in assay [4] worked out at 5.09 nM; in assay [5], 252 nM; in assay [1], 8.8 nM.
On to “anti-BACE1 hIgG1 antibody, Fc modification Q6 (M252Y/M428L/N434Y/Y436I)”, for which the Transcytosis Normalized to WT (normalized to WT) in assay [3] came out at 155. Moreover, the equilibrium dissociation constant (Kd) came to 7.72 nM in assay [4], 380 nM in assay [5], 8.9 nM in assay [1] and 194 nM in assay [2]. Further, the off-rate constant (koff) in assay [4] was 0.00494 s⁻¹. Besides, in assay [4], the kon was found to be 639000 M⁻¹ s⁻¹.
For “anti-BACE1 hIgG1 antibody, Fc modification Q7 (M252Y/Q311A/N434Y/Y436I)”, in assay [3], the Transcytosis Normalized to WT (normalized to WT) is 108. The Kd in assay [4] was found to be 6 nM; in assay [5], 295 nM; in assay [1], 7.3 nM; in assay [2], 269 nM. The dissociation rate constant (koff) in assay [4] was determined as 0.00529 s⁻¹. Moreover, in assay [4], the on-rate (kon) is 920000 M⁻¹ s⁻¹.
In assay [3], “anti-BACE1 hIgG1 antibody, Fc modification Q95 (M252Y/T307Q/Q311A/N434Y)” showed a Transcytosis Normalized to WT (normalized to WT) of 100. In addition, the Kd in assay [4] stood at 7.35 nM; in assay [5], 228 nM; in assay [1], 6.9 nM; in assay [2], 240 nM. For the same substance, the koff in assay [4] came out at 0.00608 s⁻¹. The kon in assay [4] is 828000 M⁻¹ s⁻¹.
“anti-BACE1 hIgG1 antibody, Fc modification T3 (M252Y/Q311I/N434Y)”: in assay [3], the Transcytosis Normalized to WT (normalized to WT) is 137. Moreover, the Kd came out at 14 nM in assay [4], 9.1 nM in assay [1] and 307 nM in assay [2].
“anti-BACE1 hIgG1 antibody, Fc modification T13 (N286E/Q311A/N434Y)” gave a Transcytosis Normalized to WT (normalized to WT) in assay [3] of 108. In addition, in assay [4], the dissociation constant (Kd) was determined as 38 nM, the koff was found to be 0.0327 s⁻¹ and the kon was 852000 M⁻¹ s⁻¹. Also, the Kd in assay [5] is 2450 nM.
Turning to “anti-BACE1 hIgG1 antibody, Fc modification T14 (N286E/Q311I/N434Y)”, in assay [3], the Transcytosis Normalized to WT (normalized to WT) came to 73. In assay [4], the Kd is 36 nM, the dissociation rate constant (koff) worked out at 0.0278 s⁻¹ and the association rate constant (kon) was 772000 M⁻¹ s⁻¹. The Kd in assay [5] worked out at 3110 nM.
“anti-BACE1 hIgG1 antibody, Fc modification T16 (N286E/H433K/N434Y)” showed a Transcytosis Normalized to WT (normalized to WT) in assay [3] of 55. In assay [4], the Kd came to 66.7 nM, the koff was 0.0271 s⁻¹ and the kon came to 406000 M⁻¹ s⁻¹. Besides, the Kd in assay [5] was determined as 4980 nM.
Turning to “anti-BACE1 hIgG1 antibody, Fc modification T17 (N286E/N434Y/Y436I)”, in assay [3], the Transcytosis Normalized to WT (normalized to WT) was determined as 65. Also, in assay [4], the Kd turned out to be 53 nM, the koff amounted to 0.0334 s⁻¹ and the kon turned out to be 631000 M⁻¹ s⁻¹. In assay [5], the equilibrium dissociation constant (Kd) was 6080 nM.
On the same counts, the results for “anti-BACE1 hIgG1 antibody, Fc modification T19 (Q311A/H433K/N434Y)” are 55, 53.5 nM, 0.0096 s⁻¹, 179000 M⁻¹ s⁻¹ and 4480 nM.
In turn, “anti-BACE1 hIgG1 antibody, Fc modification T22 (Q311I/H433K/N434Y)” displayed a Transcytosis Normalized to WT (normalized to WT) in assay [3] of 131. The values for the dissociation constant Kd in assay [4] and in assay [5] were 64 nM and 9030 nM, respectively.
“anti-BACE1 hIgG1 antibody, Fc modification T94 (M252Y/N286E/N434Y)” yielded a Transcytosis Normalized to WT (normalized to WT) in assay [3] of 87. The Kd was found to be 13.6 nM in assay [4], 452 nM in assay [5] and 380 nM in assay [2].
In assay [3], “anti-BACE1 hIgG1 antibody, Fc modification T96 (M252Y/V308P/N434Y)” registered a Transcytosis Normalized to WT (normalized to WT) of 94. In assay [4], the dissociation constant (Kd) was determined as 3.54 nM, the off-rate (koff) worked out at 0.00314 s⁻¹ and the association rate constant (kon) was 887000 M⁻¹ s⁻¹. For the same substance, in assay [5], the Kd is 123 nM.
The substance “anti-BACE1 hIgG4 antibody, Fc modification Q1-IgG4 (M252Y/T307Q/Q311I/N434Y)” came in with a Transcytosis Normalized to WT (normalized to WT) in assay [3] of 82. The Kd in assay [4] stood at 5.22 nM; in assay [5], 114 nM; in assay [1], 5.2 nM; in assay [2] it was 120 nM.
As for “anti-BACE1 hIgG4 antibody, Fc modification Q2 (M252Y/T307Q/M428L/N434Y)”, the equilibrium dissociation constant (Kd) in assay [1] was found to be 6.6 nM; in assay [2] it was 370 nM.
The substance “anti-BACE1 hIgG4 antibody, Fc modification Q3-IgG4 (M252Y/T307Q/N434Y/Y436I)” registered a Transcytosis Normalized to WT (normalized to WT) in assay [3] of 87. For the same substance, the Kd in assay [4] is 3.87 nM; in assay [1], 4.8 nM; in assay [2] it was 124 nM.
Substance “anti-BACE1 hIgG4 antibody, Fc modification Q5-IgG4 (M252Y/Q311I/N434Y/Y436I)” showed a Transcytosis Normalized to WT (normalized to WT) in assay [3] of 95. The Kd was determined as 13.4 nM in assay [4], 322 nM in assay [5], 7.4 nM in assay [1] and 230 nM in assay [2]. In assay [4], the koff is 0.0135 s⁻¹. Also, the kon in assay [4] stood at 1.01e+06 M⁻¹ s⁻¹.

For the origin of these results see US20220033520A1.
